Test results reported in patent US20260275317A1, “CHIMERIC ENDOLYSINS WITH ACTIVITY AGAINST STREPTOCOCCI AND STAPHYLOCOCCI” (UNIVERSITEIT GENT, priority 2023, published 2026).

What was measured:
[1] = test system: S. uberis, S. aureus, S. agalactiae and S. dysgalactiae; assay: 2 h time killing assay in PBS and UHT-milk, relative in vitro scoring; format: cell-based; conditions: 0.25 μM
Experimental: (§1) Concerning the time killing assay, an overnight bacterial culture was diluted 1:10 for S. uberis, S. agalactiae-& dysgalactiae or 1:100 for S. aureus in PBS or UHT-pasteurized whole cow's milk. A volume of 10 μL thereof was combined with an equal amount of chimeric endolysin in PBS (or only PBS as negative control) in triplicate and incubated in a covered 96-well microtiter plate at 37° C. for 2 h. […] Finally, these fractions were serially diluted 1:10 in PBS. 5 μL of each fraction was spotted on TSA or BHI-agar and incubated overnight at 37° C. The following day, colony forming units (CFU) were counted and converted to CFU/mL to calculate logarithmic reductions in comparison with the negative control. The relative scores were calculated by dividing the observed logarithmic reduction for each endolysin by the maximal reduction observed for that specific condition and strain. Next, this value was divided by the number of conditions and strains tested (i.e., 8=4 bacterial strains×2 conditions (PBS/UHT-milk)). As such, the best performing candidate in each individual assay received a score of 0.125 (=(1/1)/8). […] Turbidity reduction assays were performed by combining 100 μL of overnight grown bacterial cells with an equal volume of purified enzyme at the desired concentration. Bacterial cells were washed with PBS and resuspended in a 1:1 ratio with enzyme to an OD600 of approximately 1.0. Next, the OD600 was measured using a Tecan infinite 200 PRO plate reader (Tecan, Switzerland) every 15 seconds at 37° C., shaking the 96-well plate between each measurement.
Stationary phase S. uberis 0140J or S. aureus N305 and one randomly chosen clinical isolate of S. uberis, S. aureus, S. agalactiae and S. dysgalactiae were challenged with a final concentration of 0.25 μM endolysin in a 2 h time killing assay (TKA) in both phosphate buffered saline (PBS) and ultra-high temperature pasteurized whole cow's milk (UHT-milk).

[2] = test system: stationary phase S. uberis; assay: Turbidity reduction assay (TRA), S. uberis; format: cell-based, Streptococcus uberis; conditions: 0.3 μM
Experimental: Concerning the time killing assay, an overnight bacterial culture was diluted 1:10 for S. uberis, S. agalactiae-& dysgalactiae or 1:100 for S. aureus in PBS or UHT-pasteurized whole cow's milk. A volume of 10 μL thereof was combined with an equal amount of chimeric endolysin in PBS (or only PBS as negative control) in triplicate and incubated in a covered 96-well microtiter plate at 37° C. for 2 h. The dose was low (i.e. 0.25 μM), but this was chosen to differentiate between less and better performing variants, consequently allowing a ranking. Finally, these fractions were serially diluted 1:10 in PBS. 5 μL of each fraction was spotted on TSA or BHI-agar and incubated overnight at 37° C. The following day, colony forming units (CFU) were counted and converted to CFU/mL to calculate logarithmic reductions in comparison with the negative control. The relative scores were calculated by dividing the observed logarithmic reduction for each endolysin by the maximal reduction observed for that specific condition and strain. Next, this value was divided by the number of conditions and strains tested (i.e., 8=4 bacterial strains×2 conditions (PBS/UHT-milk)). As such, the best performing candidate in each individual assay received a score of 0.125 (=(1/1)/8). […] Turbidity reduction assays were performed by combining 100 μL of overnight grown bacterial cells with an equal volume of purified enzyme at the desired concentration. Bacterial cells were washed with PBS and resuspended in a 1:1 ratio with enzyme to an OD600 of approximately 1.0. Next, the OD600 was measured using a Tecan infinite 200 PRO plate reader (Tecan, Switzerland) every 15 seconds at 37° C., shaking the 96-well plate between each measurement.
(§2) Time killing and turbidity reduction assays were performed as previously described in 1.3.1.

[3] = test system: stationary phase S. uberis; assay: Time killing assay (TKA), S. uberis; format: cell-based, Streptococcus uberis; conditions: 0.3 μM; for ΔLog10 (CFU/mL): 1 h
Experimental: as §1, with “milk.” for “milk. A volume of 10 μL thereof was combined with an equal amount of chimeric endolysin in PBS (or only PBS as negative control) in triplicate and incubated in a covered 96-well microtiter plate at 37° C. for 2 h.”
as §2
Time killing assays were performed as previously described in 1.3.1.

S. aureus = assay: TRA and TKA against S. aureus mastitis isolates; format: cell-based, Staphylococcus aureus; conditions: S. aureus (sub)clinical isolates
Experimental: Concerning the time killing assay, an overnight bacterial culture was diluted 1:10 for S. uberis, S. agalactiae-& dysgalactiae or 1:100 for S. aureus in PBS or UHT-pasteurized whole cow's milk. A volume of 10 μL thereof was combined with an equal amount of chimeric endolysin in PBS (or only PBS as negative control) in triplicate and incubated in a covered 96-well microtiter plate at 37° C. for 2 h. The dose was low (i.e. 0.25 μM), but this was chosen to differentiate between less and better performing variants, consequently allowing a ranking. Finally, these fractions were serially diluted 1:10 in PBS. 5 μL of each fraction was spotted on TSA or BHI-agar and incubated overnight at 37° C. The following day, colony forming units (CFU) were counted and converted to CFU/mL to calculate logarithmic reductions in comparison with the negative control. The relative scores were calculated by dividing the observed logarithmic reduction for each endolysin by the maximal reduction observed for that specific condition and strain. Next, this value was divided by the number of conditions and strains tested (i.e., 8=4 bacterial strains×2 conditions (PBS/UHT-milk)). […] Next, the OD600 was measured using a Tecan infinite 200 PRO plate reader (Tecan, Switzerland) every 15 seconds at 37° C., shaking the 96-well plate between each measurement. […]

[4] = Clinical S. uberis 1 (Unknown ST and GCC)
[5] = Clinical S. uberis 2 (Unknown ST, GCC 5)
[6] = Clinical S. uberis 3 (Unknown ST, GCC 5)
[7] = Clinical S. uberis 4 (ST 815, GCC 143)
[8] = Clinical S. uberis 5 (ST 944, GCC 5)
[9] = Subclinical S. uberis 1 (ST 808, GCC 143)
[10] = Subclinical S. uberis 2 (Unknown ST and GCC)
[11] = Subclinical S. uberis 3 (Unknown ST, GCC 5)
[12] = Subclinical S. uberis 4 (Unknown ST and GCC)

B1: NC2: chimeric endolysin SEQ ID NO: 14; CPP + PlySs2 CHAP + PlySs2 SH3_5 + PlySs9 amidase_3 (protein)
chain: MRRRRRRRRGATTVNEALNNVRAQVGSGVSVGNGECYALASWYERMISPDATVGLGAGVGWVSGAIGDTISAKNIGSSYNWQANGWTVSTSGPFKAGQIVTLGATPGNPYGHVVIVEAVDGDRLTILEQNYGGKRYPVRNYYSAASYRQQVVHYITPPGTVAQSAPNLAGAGSRSYRETGTMTVTVDALNVRRAPNTSGEIVAVYKRGESFDYDTVIIDVNGYVWVSYIGGSGKRNYVATGATKDGKRFGNAWGTFKGSGKHLVICGHGQGRTGYDPGAVNAKLGITEAGKVRELSKLMSKYSGQQIDFITEQNVYDYRSITSIGKGYDSITELHFNAFNGSAKGTEVLIQSSLEADKEDMAILSLLSRYFQNRGIKKVDWLYNANQAASRGYTYRLVEIAFIDNEQDMAIFENKKEDIAKGLVSAITGVEVKTIVPSPPSSTVGSSGTPSKSIYLVGDSLRVLPHATHYQTGQKIANWVKGRTYKILQVKNVHQSNSKRAYLLDGIKSWVLEQDVEGTTKGHSKYHHHHHH
ranking by cumulative relative in vitro score [1]: overall best performing candidates | lysis speed (ΔOD600/min)/μM [2, 4]: 0.03 (ΔOD600/min)/μM | ΔOD600 ([2]; Clinical S. uberis 1 (Unknown ST and GCC), 1 h): 0.32 | lysis speed (ΔOD600/min)/μM [2, 5]: 0.08 (ΔOD600/min)/μM | ΔOD600 ([2]; Clinical S. uberis 2 (Unknown ST, GCC 5), 1 h): 0.54 | lysis speed (ΔOD600/min)/μM [2, 6]: 0.22 (ΔOD600/min)/μM | ΔOD600 ([2]; Clinical S. uberis 3 (Unknown ST, GCC 5), 1 h): 0.72 | lysis speed (ΔOD600/min)/μM [2, 7]: 0.04 (ΔOD600/min)/μM | ΔOD600 ([2]; Clinical S. uberis 4 (ST 815, GCC 143), 1 h): 0.30 | lysis speed (ΔOD600/min)/μM [2, 8]: 0.12 (ΔOD600/min)/μM | ΔOD600 ([2]; Clinical S. uberis 5 (ST 944, GCC 5), 1 h): 0.63 | ΔOD600 ([2]; S. uberis 0140J): 0.53±0.01 | lysis speed (ΔOD600/min)/μM [2, 9]: 0.18 (ΔOD600/min)/μM | ΔOD600 ([2]; Subclinical S. uberis 1 (ST 808, GCC 143), 1 h): 0.65 | lysis speed (ΔOD600/min)/μM [2, 10]: 0.06 (ΔOD600/min)/μM | ΔOD600 ([2]; Subclinical S. uberis 2 (Unknown ST and GCC), 1 h): 0.59 | lysis speed (ΔOD600/min)/μM [2, 11]: 0.18 (ΔOD600/min)/μM | ΔOD600 ([2]; Subclinical S. uberis 3 (Unknown ST, GCC 5), 1 h): 0.67 | lysis speed (ΔOD600/min)/μM [2, 12]: 0.15 (ΔOD600/min)/μM | ΔOD600 ([2]; Subclinical S. uberis 4 (Unknown ST and GCC), 1 h): 0.66 | ΔLog10 (CFU/mL) [3, 4]: 0.00 Log10 (CFU/mL) | ΔLog10 (CFU/mL) [3, 5]: 4.16 Log10 (CFU/mL) | ΔLog10 (CFU/mL) [3, 6]: 1.66 Log10 (CFU/mL) | ΔLog10 (CFU/mL) [3, 7]: 0.01 Log10 (CFU/mL) | ΔLog10 (CFU/mL) [3, 8]: 0.86 Log10 (CFU/mL) | Δ log10 ([3]; S. uberis 0140J): 0.90±0.03 log10 | ΔLog10 (CFU/mL) [3, 9]: 2.84 Log10 (CFU/mL) | ΔLog10 (CFU/mL) [3, 10]: 1.02 Log10 (CFU/mL) | ΔLog10 (CFU/mL) [3, 11]: 1.31 Log10 (CFU/mL) | ΔLog10 (CFU/mL) [3, 12]: 2.84 Log10 (CFU/mL) | enzymatic (ΔOD600) and killing (Δ log10) activity, NC2 pairwise versus NC5 (S. aureus): significantly (p<0.001) improved enzymatic (i.e., ΔOD600) and killing (i.e., Δ log10) activity

B2: NC8: chimeric endolysin SEQ ID NO: 20; CPP + PlySs2 CHAP + Ply1081 CW_7 + PlySs9 amidase_3 (protein)
chain: MRQIKWFQNRRMKWKKGATTVNEALNNVRAQVGSGVSVGNGECYALASWYERMISPDATVGLGAGVGWVSGAIGDTISAKNIGSSYNWQANGWTVSTSGPFKAGQIVTLGATPGNPYGHVVIVEAVDGDRLTILEQNYGGKRYPVRNYYSAASYRQQVVHYITPPGTVAQSAPNLAGAGIDQLVQETLAGKYGNGEQRKAALGSQYQAVMAVINGKATAPKKTVDQLAQEVIQGKHGNGEDRKKSLGPDYDAVQKRVTEILKGSPSGNIPKTPSDAPKSEVVNSSTEPKTEETGANGKATDTKITKGSGKHLVICGHGQGRTGYDPGAVNAKLGITEAGKVRELSKLMSKYSGQQIDFITEQNVYDYRSITSIGKGYDSITELHFNAFNGSAKGTEVLIQSSLEADKEDMAILSLLSRYFQNRGIKKVDWLYNANQAASRGYTYRLVEIAFIDNEQDMAIFENKKEDIAKGLVSAITGVEVKTIVPSPPSSTVGSSGTPSKSIYLVGDSLRVLPHATHYQTGQKIANWVKGRTYKILQVKNVHQSNSKRAYLLDGIKSWVLEQDVEGTTKGHSKYHHHHHH
ranking by cumulative relative in vitro score [1]: overall best performing candidates

B3: NC3: chimeric endolysin SEQ ID NO: 15; CPP + PlySs2 CHAP + Ply1081 CW_7 + PlySs9 amidase_3 (protein)
chain: MGFGCNGPWNEDDLRCRNHCKSIKGYKGGYCAKGGFVCKCYGATTVNEALNNVRAQVGSGVSVGNGECYALASWYERMISPDATVGLGAGVGWVSGAIGDTISAKNIGSSYNWQANGWTVSTSGPFKAGQIVTLGATPGNPYGHVVIVEAVDGDRLTILEQNYGGKRYPVRNYYSAASYRQQVVHYITPPGTVAQSAPNLAGAGIDQLVQETLAGKYGNGEQRKAALGSQYQAVMAVINGKATAPKKTVDQLAQEVIQGKHGNGEDRKKSLGPDYDAVQKRVTEILKGSPSGNIPKTPSDAPKSEVVNSSTEPKTEETGANGKATDTKITKGSGKHLVICGHGQGRTGYDPGAVNAKLGITEAGKVRELSKLMSKYSGQQIDFITEQNVYDYRSITSIGKGYDSITELHFNAFNGSAKGTEVLIQSSLEADKEDMAILSLLSRYFQNRGIKKVDWLYNANQAASRGYTYRLVEIAFIDNEQDMAIFENKKEDIAKGLVSAITGVEVKTIVPSPPSSTVGSSGTPSKSIYLVGDSLRVLPHATHYQTGQKIANWVKGRTYKILQVKNVHQSNSKRAYLLDGIKSWVLEQDVEGTTKGHSKYHHHHHH
ranking by cumulative relative in vitro score [1]: overall best performing candidates
